Laboratory results as given in patent publication US20230303690A1 (published 2023).
Residue numbers refer to the chain shown, from its start.

T1: human LAG3 expressed on cells (human, UniProt P18627 23-525)
T1 construct: whole, on cells
T1 sequence (looked up): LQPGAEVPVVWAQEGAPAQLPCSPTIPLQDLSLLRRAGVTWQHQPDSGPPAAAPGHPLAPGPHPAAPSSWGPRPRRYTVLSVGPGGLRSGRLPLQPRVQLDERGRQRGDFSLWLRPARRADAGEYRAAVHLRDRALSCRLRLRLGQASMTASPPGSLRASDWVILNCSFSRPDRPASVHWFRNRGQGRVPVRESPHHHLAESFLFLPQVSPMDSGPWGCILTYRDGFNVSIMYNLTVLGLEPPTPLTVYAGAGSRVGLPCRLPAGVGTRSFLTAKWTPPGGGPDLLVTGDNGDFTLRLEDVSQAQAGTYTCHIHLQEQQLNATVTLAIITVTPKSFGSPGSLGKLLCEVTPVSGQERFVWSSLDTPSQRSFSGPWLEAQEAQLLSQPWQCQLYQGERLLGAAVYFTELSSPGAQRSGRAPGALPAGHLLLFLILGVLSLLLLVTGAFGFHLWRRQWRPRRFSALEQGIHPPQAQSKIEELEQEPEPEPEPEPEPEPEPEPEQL

T2: LAG3 Protein, Human, Recombinant (His Tag) (Sino Biological Catalog No. 16498-H08H) (human, UniProt P18627 23-450)
T2 construct: Bought protein; also called hLAG3-His; LAG3-His; not shown: His tag
T2 sequence (looked up): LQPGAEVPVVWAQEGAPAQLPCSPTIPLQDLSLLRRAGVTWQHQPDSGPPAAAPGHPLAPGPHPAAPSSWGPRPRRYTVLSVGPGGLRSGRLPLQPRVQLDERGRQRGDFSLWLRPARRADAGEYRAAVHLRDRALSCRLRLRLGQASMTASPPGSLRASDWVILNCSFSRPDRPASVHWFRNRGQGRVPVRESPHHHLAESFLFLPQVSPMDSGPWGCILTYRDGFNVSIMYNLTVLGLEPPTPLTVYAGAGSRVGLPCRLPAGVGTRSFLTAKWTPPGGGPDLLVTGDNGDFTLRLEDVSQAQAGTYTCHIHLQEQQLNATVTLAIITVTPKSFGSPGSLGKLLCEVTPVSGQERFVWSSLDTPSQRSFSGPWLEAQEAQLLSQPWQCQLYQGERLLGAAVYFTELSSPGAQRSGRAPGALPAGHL

B1: sdAb No. 27-H1B3 (VHH)
VHH: QVQLVESGGGLVQPGGSLRLSCAASGFTLDYYAIGWFRQAPGKEREGVSCIRSSDASTYYADSVKGRFTISSDNSKNTVYLQMNSLRAEDTAVYYCATDRYSDCRGPYENWGQGTMVTVSS
notes: Humanized sdAb No. 27-H1; not shown: Fc part implied by anti-human IgG Fc detection
B2: sdAb No. 17-H1 (VHH)
VHH: QLQLVESGGGLVQPGGSLRLSCAASGLTLDAYAIGWFRQAPGKEREGLACISGSDGSTHYLDSVKGRFTISRDNGKNTMALQMNSLQFGDTAIYYCAARRGSCSGSWTYWGQGTQVTVSS
notes: Modified sdAb No. 17 (CDR1 DG to DA); not shown: Fc part implied by anti-human IgG1 Fc detection
B3: sdAb No. 17-H3 (VHH)
VHH: B2 VHH with A31G, G56A
notes: Modified sdAb No. 17 (CDR2 DG to DA); not shown: Fc part implied by anti-human IgG1 Fc detection
B4: sdAb No. 17-H4 (VHH)
VHH: B2 VHH with A31G, D55E
notes: Modified sdAb No. 17 (CDR2 DG to EG); not shown: Fc part implied by anti-human IgG1 Fc detection
B5: sdAb No. 17-H2 (VHH)
VHH: B2 VHH with D30E, A31G
notes: Modified sdAb No. 17 (CDR1 DG to EG); not shown: Fc part implied by anti-human IgG1 Fc detection

Key:
[1] = target: T1, human LAG3 expressed on cells; test: FACS, 293T-hLAG3 cells
Description: 5) The prepared antibody samples were added to the 96-well plate according to the platemap, the cells were resuspended and incubate at 4° C. for 1 hour.
7) 3% BSA/1xPBS was used to dilute Goat polyclonal Secondary Antibody to Human IgG-Fc (DyLight® 650) to the desired concentration (1:200), in which the cells were resuspended and incubated at 4° C. for 1 hour.
9) The cells were resuspended in 200 µl of 3% BSA/1xPBS, and performed flow cytometric testing by Shsti Biotech Inc.

[2] = target: T2, LAG3 Protein, Human, Recombinant (His …); test: ELISA, coated hLAG3-His
Description: Plates were coated with 100 µL per well of Coating Solution, and then covered, and incubated overnight (12-18 hours) at 2-8° C. The wells were aspirated and washed 1 time with >200 µL of Wash buffer per well, inverted and tapped on absorbent paper to remove excess liquid. The plates were blocked with 200 µL per well with Blocking buffer (1×PBS+4% milk) for 1 hour at room temperature, aspirated, inverted, and tapped on absorbent paper to remove excess liquid. Standards and sample dilutions were prepared in Blocking buffer. 100 µL of standards (in duplicate) and samples were pipetted into designated wells. After incubation for 1 hour at room temperature with gentle continual shaking (~500 rpm), the wells were aspirate and washed 3 times with >200 µL of Wash buffer per well, inverted and tapped on absorbent paper to remove excess liquid.
The primary antibody solution was diluted with Blocking buffer. See Table 14 for recommended primary antibody dilution. 100 µL of the primary antibody solution was added into each well and incubated for 2 hours at room temperature with gentle continual shaking (~500 rpm). The wells were aspirated and washed 3 times with >200 µL of Wash buffer per well, inverted and tapped on absorbent paper to remove excess liquid. The working solution of secondary antibody was made with Blocking buffer by diluting the secondary antibody by 2,500 times. 100 µL of secondary antibody working solution was added into each well and incubated for 30 minutes at room temperature. The wells were aspirated and washed 5 times with >200 µL of Wash buffer per well, inverted and tapped on absorbent paper to remove excess liquid. 100 µL of TMB substrate solution (Biopanda, TMB-S-004) was added to each well and incubated for 30 minutes at room temperature. 100 µL of Stop solution (Solarbio, C1058) was added to each well. Absorbance at 450 nm was measured within 30 minutes of adding Stop solution. Results were calculated using a log-log or 4-parameter curve fit.

[3] = target: T1, human LAG3 expressed on cells; test: cell ELISA, 293T-hLAG3 cells
Description: Each well was treated with stimulants. The cells were then fixed and blocked with Blocking buffer. The Primary antibodies were added. The wells were washed and a HRP-conjugated secondary antibody was added. The wells were washed with 1x PBS and a solution containing TMB (Biopanda, TMB-S-004) was added. The TMB reacted with HRP to change the color thereof from colorless to blue. An acid stop solution (Solarbio, C1058) was then added to stop the reaction and change the blue color to yellow.
Materials are listed below: [0072] […] 2) Blocking buffer: 1×PBS+3% BSA (Sigma, B2064); [0074] […] [0075] 4) Secondary antibody: Goat anti-human IgG1 Fc antibody, HRP (1:2500, invitrogen, A18817). [0076]

EC50 [3]	OD450 at 0.0045725 ug/ml [3]	OD450 at 0.0137174 ug/ml [3]	OD450 at 0.0411523 ug/ml [3]	OD450 at 0.1234568 ug/ml [3]	OD450 at 0.3703704 ug/ml [3]	OD450 at 1.111111 ug/ml [3]	OD450 at 3.333333 ug/ml [3]	OD450 at 10 ug/ml [3]	further results	Binder
–	–	–	–	–	–	–	–	–	EC50 [1]: 1.18 nM; FACS signal at 0.061 nM [1]: 234; FACS signal at 0.1829 nM [1]: 585; FACS signal at 0.5487 nM [1]: 1420; FACS signal at 1.6461 nM [1]: 2810; FACS signal at 4.9383 nM [1]: 3820; FACS signal at 14.815 nM [1]: 4360; FACS signal at 44.445 nM [1]: 4620; FACS signal at 133.335 nM [1]: 4630; EC50 [2]: 2.08 nM; OD450 at 0.061 nM [2]: 0.038; OD450 at 0.1829 nM [2]: 0.057; OD450 at 0.5487 nM [2]: 0.212; OD450 at 1.6461 nM [2]: 1.15; OD450 at 4.9383 nM [2]: 2.53; OD450 at 14.815 nM [2]: 2.88; OD450 at 44.445 nM [2]: 2.91; OD450 at 133.335 nM [2]: 2.99	B1
1.01 nM	0.101	0.242	0.527	0.945	1.27	1.4	1.44	1.5	–	B2
1.01 nM	0.096	0.208	0.43	0.818	1.11	1.21	1.13	1.28	–	B3
0.758 nM	0.092	0.232	0.432	0.745	0.962	0.979	0.905	1.18	–	B4
1.07 nM	0.105	0.238	0.458	0.9	1.25	1.35	1.28	1.4	–	B5
